Data on eleven molecules can be found in US20200181255A1 (Amgen, published 2020).

To fix the notation:
T1: recombinant human IL-23 (human, UniProt Q9NPF7 20-189; P29460 23-328)
T1 sequence 1: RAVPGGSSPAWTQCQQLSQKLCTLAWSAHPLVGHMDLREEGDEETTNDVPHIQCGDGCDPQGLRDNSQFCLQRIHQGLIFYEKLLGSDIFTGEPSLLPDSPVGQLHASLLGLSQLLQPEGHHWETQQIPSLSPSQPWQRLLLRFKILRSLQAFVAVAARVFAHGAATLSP
T1 sequence 2: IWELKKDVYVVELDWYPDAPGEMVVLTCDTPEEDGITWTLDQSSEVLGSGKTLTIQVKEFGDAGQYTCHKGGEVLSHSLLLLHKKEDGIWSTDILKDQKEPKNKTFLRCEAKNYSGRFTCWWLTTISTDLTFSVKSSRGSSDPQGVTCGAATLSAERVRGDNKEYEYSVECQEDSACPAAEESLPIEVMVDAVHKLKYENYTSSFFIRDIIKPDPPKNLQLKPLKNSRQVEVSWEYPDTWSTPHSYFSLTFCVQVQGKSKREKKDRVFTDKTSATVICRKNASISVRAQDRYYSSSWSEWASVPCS

T2: recombinant cynomolgous IL-23 (cynomolgous)
T2 chain 1: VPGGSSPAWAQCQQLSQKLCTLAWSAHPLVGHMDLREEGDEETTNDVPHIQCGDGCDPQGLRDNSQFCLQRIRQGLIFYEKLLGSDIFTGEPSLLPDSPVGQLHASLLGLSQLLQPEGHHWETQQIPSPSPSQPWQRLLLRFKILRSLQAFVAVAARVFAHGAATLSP
T2 chain 2: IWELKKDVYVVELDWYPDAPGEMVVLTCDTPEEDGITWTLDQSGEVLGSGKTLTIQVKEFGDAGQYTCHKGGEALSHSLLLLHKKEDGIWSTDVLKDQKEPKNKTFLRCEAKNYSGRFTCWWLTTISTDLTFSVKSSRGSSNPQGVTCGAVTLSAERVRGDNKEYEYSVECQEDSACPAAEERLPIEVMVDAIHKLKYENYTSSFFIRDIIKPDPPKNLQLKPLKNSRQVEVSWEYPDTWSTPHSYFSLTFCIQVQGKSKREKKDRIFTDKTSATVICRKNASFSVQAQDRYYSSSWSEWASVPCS

T3: Native human IL-23 (human, UniProt Q9NPF7 20-189; P29460 23-328)
T3 sequence 1: T1 sequence 1
T3 sequence 2: T1 sequence 2

B1: Antibody C (antibody, V domains shown)
VH: QVQLQESGPGLVKPSQTLSLTCTVSGGSINSGGYYWSWIRQHPGKGLEWIGYIYYSGSSYYNPSLKSRVTISVDTSQNQFSLKLSSVTAADTAVYYCARDRGHYYGMDVWGQGTTVTVSS
VL: DIQMTQSPSSVSASVGDRVTITCRASQGSSSWFAWYQQKPGKAPKLLIYAASSLQSGVPSRFSGSGSGTDFTLTISSLQPEDFATYYCQQANSFPFTFGPGTKVDIK
notes: also called VH10/VL10
B2: Antibody G (antibody, V domains shown)
VH: QVQLQESGPRLVKPSETLSLTCTVSGDSISSYFWSWIRQPPGKGLEWLGYIYYSGSTNYNPSLKSRVTISIDTSKNQFSLKLSSVTAADTAVYYCTRDRGSYYGSDYWGQGTLVTVSS
VL: B1 VL with S26G, G28V, S29I, F33L, E81D, N92T, F96L, P100G, D105E
notes: also called VH12/VL12
B3: Antibody E (antibody, V domains shown)
VH: QVQLVESGGGVVQPGRSLRLSCAASGFTFSSYGMHWVRQAPGKGLEWVAVIWYDGSNEYYADSVKGRFTISRDNSKNTLYLQMNSLRAEDTAVYYCARDRGYTSSWYPDAFDIWGQGTMVTVSS
VL: QSVLTQPPSVSGAPGQRVTISCTGSSSNTGAGYDVHWYQQVPGTAPKLLIYGSGNRPSGVPDRFSGSKSGTSASLAITGLQAEDEADYYCQSYDSSLSGWVFGGGTRLTVL
B4: Antibody L (antibody, V domains shown)
VH: QVQLVESGGGVVQPGRSLRLSCAASGFTFSSYAMHWVRQAPGKGLEWLSVISHDGSIKYYADSVKGRFTISRDNSKNTLYLQMNSLRAEDTAVYYCARERTTLSGSYFDYWGQGTLVTVSS
VL: QAVLTQPSSLSASPGASASLTCTLRSGINVGTYRIYWYQQKPGSPPQYLLRYKSDSDKQQGSGVPSRFSGSKDASANAGILLISGLQSEDEADYYCMIWHSSASVFGGGTKLTVL
notes: also called VH4/VL4
B5: Antibody A (antibody, V domains shown)
VH: B1 VH with N30S, S59T, I71M, Q77K, R99K, D100N, H103F
VL: B1 VL with M4L, G28V, S29I, K45N, E81A, Y87F, I106V
B6: Antibody H (antibody, V domains shown)
VH: B1 VH with N30S, S37T, S58N, S59T, V69I, Q77K, K83S, D100N, H103Y
VL: B1 VL with S29F, S31G, F33L
B7: Antibody I (antibody, V domains shown)
VH: QVQLQESGPGLVKPSETLSLTCTVSGGSISTYYWSWIRQPAGKGLEWIGLIYTSGSTNYNPSLKSRVTMSLDTSKNQFSLRLTSVTAADTAVYYCARDRGYYYGVDVWGQGTTVTVSS
VL: B1 VL with M4L, Q6P, S29I, S30A, S31G, F33L, N92D, F96P, P100G, D105E
B8: Antibody K (antibody, V domains shown)
VH: EVQLVESGGGLVQPGGSLRLSCVVSGFTFSSFSMNWVRQAPGKGLEWVSYISSRSSTIYYADSVKGRFTISRDNAKNSLYLQMNSLRDEDTAVYYCARRIAAAGPWGYYYAMDVWGQGTTVTVSS
VL: QPELTQPPSASASLGASVTLTCTLSSGYSDYKVDWYQLRPGKGPRFVMRVGTGGTVGSKGEGIPDRFSVLGSGLNRSLTIKNIQEEDESDYHCGADHGSGSNFVYVFGTGTKVTVL
B9: Antibody M (antibody, V domains shown)
VH: B8 VH with V23A, V24A, F32Y, Y60I, P105G, W106F, G107H, M112L
VL: B8 VL with E3V, S25N, L38Q, T55I, E61D, S77Y
B10: Antibody J (antibody, V domains shown)
VH: B4 VH with A33G, L48V, S49A, H53F, I57L
VL: B4 VL
B11: Antibody N (antibody, V domains shown)
VH: B8 VH with V23A, V24A, S31T, F32Y, R54S, I58R, Y60H
VL: B8 VL with E3V, L38Q, T55I, S77Y, S101N

Substitutions are numbered along the chain they refer to.

One experiment concerns the target T1, recombinant human IL-23. The experiment is described as follows: cell-based or functional assay.
As for B1, the “IC50 (pM), IFNγ human whole blood assay” value turned out to be 97 pM.

On to B2, for which the “IC50 (pM), IFNγ human whole blood assay” value is 53 pM.

For another experiment, the target named is T2, recombinant cynomolgous IL-23. The experiment can be described thus: cell-based or functional assay.
As to B3, the “IC50 (pM), IFNγ human whole blood assay” value amounted to 54 pM.

On to B1, for which the “IC50 (pM), IFNγ human whole blood assay” value is 186 pM.

For the molecule B2, the “IC50 (pM), IFNγ human whole blood assay” value amounted to 93 pM.

A further experiment addresses T1, recombinant human IL-23. The experiment can be described thus: KinExA, solution equilibrium, rhuIL-23-coated beads.
Experimental: Normal human serum (NHS)-activated Sepharose 4 fast flow beads (Amersham Biosciences, part of GE Healthcare, Uppsala, Sweden), are pre-coated with rhuIL-23 and blocked with 1 m Tris buffer with 10 mg/mL BSA. 50 pM of IL-23 antibody is incubated with rhuIL-23 (12 points of 1:2 dilutions starting from 800 pM) at room temperature for 72 hours before it is run through the rhuIL-23-coated Sepharose beads. The amount of the bead-bound antibody was quantified by fluorescent (Cy5) labeled goat anti-human-Fc antibody (Jackson Immuno Research, West Grove, Pa.). The binding signal is proportional to the amount of free antibody at equilibrium.
Consider B1, for which the Kd came to 2.56 pM.

B2: the equilibrium dissociation constant (Kd) turned out to be 2 pM.

For B4, the equilibrium dissociation constant (Kd) worked out at 1.08 pM.

The next experiment has as its target T1, recombinant human IL-23. The experiment is described as follows: KinExA.
As to B1, the on-rate (kon) turned out to be 1.36e+06 M⁻¹ s⁻¹.

In the case of B2, the on-rate (kon) came to 400000 M⁻¹ s⁻¹.

Turning to B4, the kon came to 3.34e+06 M⁻¹ s⁻¹.

The target of the next experiment is T3, Native human IL-23. The experiment is described as follows: cell-based or functional assay.
In the case of B3, the “IC50 (pM), NK cell assay (IFNγ)” value worked out at 158 pM.

Regarding B2, the “IC50 (pM), NK cell assay (IFNγ)” value is 152 pM.

The target of a further experiment is T1, recombinant human IL-23. The experiment can be described thus: cell-based or functional assay. This is another data set of the same source.
As for B5, the “IC50 (pM), NK cell assay (IFNγ)” value stood at 42 pM.

Turning to B6, the “IC50 (pM), NK cell assay (IFNγ)” value turned out to be 29 pM.

Regarding B1, the “IC50 (pM), NK cell assay (IFNγ)” value is 32 pM.

As to B2, the “IC50 (pM), NK cell assay (IFNγ)” value turned out to be 45 pM.

Turning to B7, the “IC50 (pM), NK cell assay (IFNγ)” value stood at 69 pM.

Regarding B8, the “IC50 (pM), NK cell assay (IFNγ)” value is 7 pM.

For the molecule B9, the “IC50 (pM), NK cell assay (IFNγ)” value is 8 pM.

In the case of B10, the “IC50 (pM), NK cell assay (IFNγ)” value was 4 pM.

As for B4, the “IC50 (pM), NK cell assay (IFNγ)” value is 3 pM.

The next experiment concerns the target T2, recombinant cynomolgous IL-23. The experiment can be described thus: cell-based or functional assay. The source holds these as a separate data set.
In the case of B3, the “IC50 (pM), NK cell assay (IFNγ)” value stood at 21 pM.

B5: the “IC50 (pM), NK cell assay (IFNγ)” value turned out to be 31 pM.

On to B6, for which the “IC50 (pM), NK cell assay (IFNγ)” value was 33 pM.

As to B1, the “IC50 (pM), NK cell assay (IFNγ)” value worked out at 29 pM.

For the molecule B2, the “IC50 (pM), NK cell assay (IFNγ)” value was determined as 23 pM.

On to B7, for which the “IC50 (pM), NK cell assay (IFNγ)” value turned out to be 52 pM.

As for B8, the “IC50 (pM), NK cell assay (IFNγ)” value is 8 pM.

On to B9, for which the “IC50 (pM), NK cell assay (IFNγ)” value came to 12 pM.

Consider B10, for which the “IC50 (pM), NK cell assay (IFNγ)” value worked out at 5 pM.

Regarding B4, the “IC50 (pM), NK cell assay (IFNγ)” value is 4 pM.

The next experiment addresses T3, Native human IL-23. The experiment can be described thus: cell-based or functional assay. This is another data set of the same source.
Consider B3, for which the “IC50 (pM), STAT-luciferase assay” value is 140 pM.

Consider B5, for which the “IC50 (pM), STAT-luciferase assay” value is 114 pM.

On to B6, for which the “IC50 (pM), STAT-luciferase assay” value amounted to 192 pM.

As to B1, the “IC50 (pM), STAT-luciferase assay” value stood at 107 pM.

For the molecule B2, the “IC50 (pM), STAT-luciferase assay” value was 156 pM.

For the molecule B7, the “IC50 (pM), STAT-luciferase assay” value was found to be 208 pM.

Turning to B8, the “IC50 (pM), STAT-luciferase assay” value came out at 71 pM.

For B9, the “IC50 (pM), STAT-luciferase assay” value turned out to be 34 pM.

For B11, the “IC50 (pM), STAT-luciferase assay” value was determined as 361 pM.

On to B10, for which the “IC50 (pM), STAT-luciferase assay” value was found to be 83 pM.

Consider B4, for which the “IC50 (pM), STAT-luciferase assay” value was 113 pM.

The next experiment addresses T1, recombinant human IL-23. The experiment is described as follows: cell-based or functional assay. This is another data set of the same source.
As to B5, the “IC50 (pM), STAT-luciferase assay” value amounted to 190 pM.

As to B6, the “IC50 (pM), STAT-luciferase assay” value worked out at 253 pM.

As for B1, the “IC50 (pM), STAT-luciferase assay” value is 211 pM.

For B2, the “IC50 (pM), STAT-luciferase assay” value was determined as 296 pM.

Take B7: the “IC50 (pM), STAT-luciferase assay” value came out at 338 pM.

With B8, the “IC50 (pM), STAT-luciferase assay” value was found to be 43 pM.

Take B9: the “IC50 (pM), STAT-luciferase assay” value came out at 40 pM.

As to B11, the “IC50 (pM), STAT-luciferase assay” value turned out to be 145 pM.

For the molecule B10, the “IC50 (pM), STAT-luciferase assay” value was found to be 36 pM.

B4: the “IC50 (pM), STAT-luciferase assay” value was 23 pM.

Another experiment concerns the target T2, recombinant cynomolgous IL-23. The experiment can be described thus: cell-based or functional assay. This is another data set of the same source.
Turning to B3, the “IC50 (pM), STAT-luciferase assay” value is 188 pM.

As to B5, the “IC50 (pM), STAT-luciferase assay” value was determined as 379 pM.

For the molecule B6, the “IC50 (pM), STAT-luciferase assay” value came out at 1024 pM.

In the case of B1, the “IC50 (pM), STAT-luciferase assay” value is 376 pM.

B2: the “IC50 (pM), STAT-luciferase assay” value is 421 pM.

Take B7: the “IC50 (pM), STAT-luciferase assay” value was 650 pM.

As for B8, the “IC50 (pM), STAT-luciferase assay” value turned out to be 61 pM.

For the molecule B9, the “IC50 (pM), STAT-luciferase assay” value was found to be 56 pM.

Take B11: the “IC50 (pM), STAT-luciferase assay” value worked out at 238 pM.

For the molecule B10, the “IC50 (pM), STAT-luciferase assay” value is 56 pM.

As to B4, the “IC50 (pM), STAT-luciferase assay” value was 47 pM.

A further experiment addresses T1, recombinant human IL-23. The experiment can be described thus: KinExA, derived from KD=Koff/Kon.
With B1, the koff turned out to be 4.1e-06 s⁻¹.

For B2, the koff is 8.1e-07 s⁻¹.

Consider B4, for which the off-rate (koff) was 3.7e-06 s⁻¹.

A further experiment concerns the target T1, recombinant human IL-23. The experiment can be described thus: cell-based or functional assay. The source holds these as a separate data set.
With B2, the “IC50 (pM), IL-22 human whole blood assay” value is 83 pM.

Another experiment concerns the target T2, recombinant cynomolgous IL-23. The experiment can be described thus: cell-based or functional assay. The source holds these as a separate data set.
In the case of B3, the “IC50 (pM), IL-22 human whole blood assay” value was found to be 56 pM.

As for B2, the “IC50 (pM), IL-22 human whole blood assay” value was determined as 66 pM.
